Measured values reported in patent US20080268549A1, “THIOFLAVIN T METHOD FOR DETECTION OF AMYLOID POLYPEPTIDE FIBRIL AGGREGATION” (priority 2007, published 2008).
Entries after “also recorded” stand apart in the source; their conditions may differ.

Key:
Aβ (1-40) = target: T1, Aβ (1-40) (Homo sapiens, UniProt P05067); experiment: Circular dichroism spectra of Aβ secondary structure
T1 construct: β-amyloid peptide (1-40) can be obtained from Biosource; purchased Biosource (Camarillo, Calif.)
Experimental: CD is routinely used to monitor changes in secondary structure (Wang et al., 2005). In order to verify that CLN does indeed cause a shift in secondary structure, a CD spectra of Aβ treated with CLN and control were taken at 24 and 48 h. For these experiments, a 10 μM solution of Aβ (1-40) (first solubilized in base as in previous examples) was prepared in 50 mM Tris buffer, pH 7.4, with and without 50 nM CLN and ThT. Circular dichroism (CD) spectra of the Aβ (1-40) peptide solutions were recorded using a Jasco J-715 CD spectropolarimeter at 25° C. using a bandwidth of 1.0 nm, a sensitivity of 0.5 nm and a recording speed of 50 nm/min. The results were plotted as ellipticity (mdeg) versus wavelength (nm).

β-amyloid peptide (1-40) = target: T2, β-amyloid peptide (1-40) (Homo sapiens, UniProt P05067); experiment: Thioflavin T fluorescence assay of Aβ fibril aggregation; format: biochemical; details: FIG. 5
T2 construct: β-amyloid peptide (1-40) can be obtained from Biosource; purchased Biosource (Camarillo, Calif.)
Experimental: (1) Prepare a stock ThT solution (1 mg/ml; 3.14 mM) in distilled, deionized water, aliquot into small samples and store long term at −20° C. in the dark. Thaw frozen samples only once and discard the remainder. Add 1.6 μl of ThT solution to 1.0 ml of 50 mM Tris buffer, pH 7.4 to yield a final 5.0 μM ThT solution.
(2) β-amyloid peptide (1-40) can be obtained from Biosource (Camarillo, Calif.), CLN from ReGen Therapeutics Plc (London, UK) and Thioflavin T from Sigma (St. Louis, Mo.). Prepare a stock solution of β-amyloid (by dissolving in 10 mM NaOH (0.5 mg/ml) and stored at −70° C. until used. Aβ in base is stable for at least 3 weeks frozen. Add 5.0 μl (2.5 μg) of β-amyloid stock solution to 1.0 ml of ThT/Tris buffer solution. It is preferable to avoid any contact with metal when preparing a amyloid solution since metal can oxidize the peptide.
(3) Measure the fluorescence intensity of 1.0 ml of Aβ/ThT/Tris solution using an excitation wavelength of 440 nm and an emission wavelength of 482 nm. A control solution of Aβ/Tris solution, without ThT can be used as a control. The fluorescence intensity above the control is used as a measure of fibril content.
(4) If the assay is intended to measure the change in Aβ aggregation and used to quantitate the effect of test agents, prepare a second sample containing the drug or agent as in step 2. Preincubate the samples for the appropriate length of time (usually days to weeks) required to yield a change in fluorescence intensity.
Samples of Aβ in base were prepared as described in Example 1. ThT in Tris buffer was then added to the sample together with CLN at a concentration range of 2.5-10 nM and was preincubated for either 1 or 2 days and the fluorescence intensity measured following the above procedure. […] After a 2-day treatment with 10 nM CLN, approximately 50% of the Aβ fibrils are dissolved.

T1 sequence (P05067 672-711 limits assumed): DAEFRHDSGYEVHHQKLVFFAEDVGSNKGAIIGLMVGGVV
T2 sequence (P05067 672-711 limits assumed): as above

Compound | effect of ThT on conformation of CLN treated Aβ samples by CD spectra (Aβ (1-40); 10 μM Aβ (1-40) with 50 nM CLN and ThT, FIG. 6B) | Aβ fibrils dissolved (β-amyloid peptide (1-40); 10 nM CLN, 2-day treatment) | decrease in Aβ aggregation (ThT fluorescence), maximum (β-amyloid peptide (1-40); 10 nM CLN, at 2 days) [%] | effect on Aβ aggregation (ThT fluorescence) (β-amyloid peptide (1-40); CLN 2.5-10 nM, preincubated 1 or 2 days) | effect on secondary structure (conformation) of Aβ by CD spectra (Aβ (1-40); 10 μM Aβ (1-40), 50 nM CLN, 50 mM Tris pH 7.4, 24 and 48 h, FIG. 6A)
Cc1ccc2c(c1)sc(-c1ccc(N(C)C)cc1)[n+]2C.[Cl-] [ThT, Thioflavin T] | did not have an effect |  |  |  | 
colostrinin [CLN] |  | approximately 50% | 40 | dose-dependent decrease | shift from β-sheet to α-helix; also recorded: shifted to a random-coil/α-helical rich conformation
